These results are taken from US20160228506A1, “Compositions and Formulations for Prevention and Reduction of Tumorigenesis, Cancer Cell Proliferation and Invasion, and Methods of Production and Use Thereof in Cancer Treatment” (PRONUTRIA, INC., priority 2013, published 2016).

One series has as its system Pancreatin. The class given is in vitro ADME, Porcine. The procedure:
Control samples were protease-free.
Analyses were performed using an Agilent 1100 series system.

The conditions of series [1]: rat, in vivo.
Protocol: A rat pharmacokinetic study with oral administration of native and modified forms of SEQID-00363 was performed as described herein. The indigestible marker Cobalt-EDTA was formulated at 50 mg/L in the dosed protein solutions to monitor differences in intestinal transit rate between treatment groups and individual rats. Following the final blood collection (at t=4 h) rats were euthanized and the terminal ileum (20 cm of small intestine prior to the cecum) and its contents (the digesta) were collected into a pre-weighed tube. The ileum was flushed with saline and pooled with the digesta. The pH of the digesta was adjusted to ˜3.0 with HCl in order to inactivate all enzymes. The ileum samples were placed into separate pre-weighed 15 mL conical tubes. All samples were flash frozen in liquid nitrogen, and stored at −80° C. until further analysis. Individual ileum and ileum content weights were calculated and recorded for each sample.
A sample of the digesta, which exists as a heterogenous solution containing insoluble particles, was used in the Coomassie Plus Protein Assay, as described herein, to determine protein concentration.
The conditions of series [2]: rat, in vivo, po. The procedure: The boavailability o native and modified forms (ie. deglycosylated and hydrolyzed) of SEQID-00363 was evaluated using the methods described in herein. Briefly, native and modified forms of SEQID-00363 were orally administered to intrajugular-cannulated rats and concentration of free amino acids in plasma samples collected over a 4 h period was determined by HPLC amino acid analysis.

For series [3] the following is noted: simulated gi fluid.
Series [4] is described as follows: Intact half-life during simulated gastric fluid (SGF) digestion. The following applies: SGF pH 1.5, pepsin:polypeptide 1:20 w/w, 37° C.; intact protein.
The test system of another series is α-amylase. Put plainly: Amylase activity assay on starch plates (halo). Also on record: species or system Bacillus subtilis. Here is the method: SEQID-00407 is an α-amylase in Bacillus subtilis that has the activity of breaking down polysaccharides, such as starch, into monosaccharides or disaccharides. […] If there is enzymatic activity, the secreted enzyme will breakdown the starch and upon staining by iodine, there will be a halo surrounding the Bacillus subtilis colonies. 1% starch plates were made by combining 25 g Luria Broth-Miller, 10 g starch, 15 g bacteriological agar, and 1 L water. 10 mM IPTG was added to the starch plates after the agar has solidified. Single colonies of Bacillus subtilis strains expressing the mutant polypeptides were inoculated in 5 ml LB at 37° C. for 4 hours and 50 μl of the liquid culture were spotted at the center for the starch plates. After 20 hours of growth and induced secretion, 10% iodine was added to the starch plates to stain for starch. When the wild-type enzyme is secreted, it creates a large halo around the cells. […] Table E37A quantifies the area of the halos relative to the area of the cells. […]
SEQID-00407 is an α-amylase in Bacillus subtilis that has the activity of breaking down polysaccharides, such as starch, into monosaccharides or disaccharides. […] Table E38E quantifies the area of the halos relative to the area of the cells.

Read-outs that look alike come from different tables or passages of the source.

B1: Deglycosylated SEQID-00363: SEQID-00363 with mannose glycans reduced enzymatically by alpha mannosidase (protein)
chain: ATLDSWLSNEATVARTAILNNIGADGAWVSGADSGIVVASPSTDNPDYFYTWTRDSGLVLKTLVDLFRNGDTSLLSTIENYISAQAIVQGISNPSGDLSSGAGLGEPKFNVDETAYTGSWGRPQRDGPALRATAMIGFGQWLLDNGYTSTATDIVWPLVRNDLSYVAQYWNQTGYDLWEEVNGSSFFTIAVQHRALVEGSAFATAVGSSCSWCDSQAPEILCYLQSFWTGSFILANFDSSRSGKDANTLLGSIHTFDPEAACDDSTFQPCSPRALANHKEVVDSFRSIYTLNDGLSDSEAVAVGRYPEDTYYNGNPWFLCTLAAAEQLYDALYQWDKQGSLEVTDVSLDFFKALYSDAATGTYSSSSSTYSSIVDAVKTFADGFVSIVETHAASNGSMSEQYDKSDGEQLSARDLTWSYAALLTANNRRNSVVPASWGETSASSVPGTCAATSAIGTYSSVTVTSWPSIVATGGTTTTATPTGSGSVTSTSKTTATASKTSTSTSSTSCTTPTAVAVTFDLTATTTYGENIYLVGSISQLGDWETSDGIALSADKYTSSDPLWYVTVTLPAGESFEYKFIRIESDDSVEWESDPNREYTVPQACGTSTATVTDTWR
modifications: deglycosylated; Aspergillus niger
With B1, in the series with Pancreatin, the “Free Leu (μM) at 120 min time point of Pancreatin digest” value stood at 799.2 µM. Besides, the “total protein mass in digesta samples” value in series [1] worked out at 7.7 mg. Moreover, in series [2], the “bioavailability of Leucine and EAAs versus native SEQID-00363” value is listed as “did not increase the bioavailability”; the “bioavailability of Serine and Threonine versus native SEQID-00363” value was “did increase the bioavailability”. For the same molecule, in series [3], the “SGF Half-life (t½)” value is on record as 4.3 min.

B2: SEQID-00690: engineered secreted variant of SEQID-00407 enriched in essential amino acids which retains enzymatic activity (protein, listed as Bacillus subtilis)
chain: ETANKSNELTAPSIKSGTILHAWNWSFNTLKHNMKDIHDAGYTAIQTSPINQVKEGNQGDKSMSNWYWLYQPTSYQIGNRYLGTEQEFKEMCAAAEEYGIKVIVDAVINHTTSDLVGVLSNEVKSIPNWTHGNTQIKNWSDRWDVTQNSLLGLYDWNTQNTQVQSYLKRFLDRALNDGADGFRFDAAKHIELPDDGSYGSQFWPNITRVVMEFQYGEILQDSASRDAAYANYMDVTASNYGHSIRSALKNRNLGVSNIVMYILRVSADKLVTWVESHDTYANDDEESTWMSDDDIRLGWAVIASRSGSTPLFFSRPEGGGNGVRFPGKSQIGDRGSALFEDQAITAVNRFHNVMAGLPKRLSNPNGNNQIFMNQRGSHGVVLANAGSSSVSINTATKLPDGRYDNKAGAGSFQVNDGKLTGTINARSVAVLYPDDIAKAPHVFLENYKTGVTHSFNDQLTITMRADANTTKAVYQINNGPETAFKDGDQFTIGKGDPFGKTYTIMLKGTNSDGVTRTEKYSFVKRDPASAKTIGYQNPNHWSQVNAYIYKHDGSRVIELTGSWPGKPMTKNADGIYTLTLPADTDTTNAKVIFNNGSAQVPGQNQPGFDYVLNGLYNDSGLSGSLPH
modifications: source: /note="strain 168"
Turning to B2, the “SGF Half-life (t½)” value in series [4] was 4.4 min. This molecule also registered a Halo/Cell with α-amylase (area of halo relative to area of cells) of 2.63. Further, the “Halo Area (in^2)” value in the series with α-amylase (starch plate, iodine stain, 20 hours) was 1.234 in^2.
